Laboratory results: publication PMC7188823, “The BRCA2-MEILB2-BRME1 complex governs meiotic recombination and impairs the mitotic BRCA2-RAD51 function in cancer cells” (Nature Communications, 2020)
Blank lines part the entries; values can stand above or below the molecule they belong to.

T1: MEILB2 C-terminus (a.a. 87–338) (Mus musculus (Mouse), UniProt Q9D4G2)
T1 chain: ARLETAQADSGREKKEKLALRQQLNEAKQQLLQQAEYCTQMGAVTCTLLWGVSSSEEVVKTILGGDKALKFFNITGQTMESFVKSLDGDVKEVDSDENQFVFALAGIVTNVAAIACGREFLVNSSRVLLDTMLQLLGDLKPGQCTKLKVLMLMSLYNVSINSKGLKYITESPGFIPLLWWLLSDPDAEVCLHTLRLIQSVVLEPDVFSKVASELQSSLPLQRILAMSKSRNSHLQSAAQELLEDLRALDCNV

B1: MEILB2 α1 (a.a. 18–55; tag removed) (domain or fragment, mouse, UniProt Q9D4G2 18-55, looked up)
chain: MESKEEFVKVRKKDLERLTTEVMQIRDFLPRILNGELL
notes: MEILB2/HSF2BP, mouse, α1, a.a; 18-55; source: E. coli BL21 (DE3), purified (Ni-NTA, amylose, ion exchange, TEV cleavage, size-exclusion chromatography); not shown: MBP, N-terminal, cleaved
B2: BRCA2-MBD fragment (a.a. 2219–2285) (domain or fragment, mouse, UniProt P97929 2219-2285, looked up)
chain: KRGGVTVDAVGQPPIKRSLLNEFDRIIESKGKSLTPSKSTPDGTVKDRSLFTHHMSLEPVTCGPFCS
notes: BRCA2, mouse, a.a; 2219-2285 (7.4 kDa in theory by the text); the His-Smt3 tag holds for the protein expressed alone (pSmt3); in the co-expression (pET-Duet) BRCA2 was untagged; also called mBRCA2 a.a; 2219–2285; source: E. coli BL21(DE3), purified (Ni-NTA, Ulp1 cleavage, size-exclusion chromatography, cation exchange); expressed alone or co-expressed untagged with His-Smt3-MEILB2 (a.a. 87–338)
B3: MEILB2 C-terminus (a.a. 87–338) (domain or fragment, mouse, UniProt Q9D4G2 87-338, looked up)
chain: T1 chain
notes: MEILB2/HSF2BP, mouse, a.a; 87-338 (27.9 kDa in theory); pET-Duet for the co-expression, pSmt3 for the protein alone; also called mMEILB2 a.a; 87–338; source: E. coli BL21(DE3), purified (Ni-NTA, Ulp1 cleavage, cation exchange, size-exclusion chromatography); expressed alone or co-expressed with BRCA2 (a.a. 2219–2285); not shown: 10x His-Smt3, N-terminal, cleaved

Legend:
[1] = biological target: MEILB2 α1+2 (tag removed) (mouse); assay: SEC-MALS; Superdex 200 Increase 10/300 GL; 20 mM Tris (pH 8.0), 150 mM KCl, 2 mM DTT; samples at >1 mg/ml; MEILB2 fragments alone or as purified complexes with BRME1-MBD
[2] = biological target: MEILB2 α1 (a.a. 18–55; tag removed) (mouse) (UniProt Q9D4G2); assay: as above
[3] = biological target: the molecule itself; assay: as above
[4] = biological target: B3; assay: SEC-MALS; purified MEILB2 (a.a. 87–338)-BRCA2 (a.a. 2219–2285) heterocomplex; 500 µg on Superdex 200 10/300 at 0.5 ml/min; conditions: both partners purified
[5] = biological target: T1, MEILB2 C-terminus (a.a. 87–338); assay: co-expression co-purification, SEC and SEC-MALS
[6] = biological target: the molecule itself; assay: SEC-MALS; purified MEILB2 (a.a. 87–338)-BRCA2 (a.a. 2219–2285) heterocomplex; 500 µg on Superdex 200 10/300 at 0.5 ml/min
[7] = biological target: the molecule itself; assay: SEC-MALS; individual proteins; 500 µg on Superdex 200 10/300 at 0.5 ml/min

- stoichiometry N (BRME1-MBD per MEILB2 chain (2:2)) [1]: 1
- stoichiometry N (BRME1-MBD per MEILB2 chain (2:2)) [2]: 1
Molecule: BRME1-MBD (a.a. 519–600), recombinant, His-tagged (from UniProt Q6DIA7 519-600) (domain or fragment)

Molecule: B1
- stoichiometry N [3]: 4 chains in the oligomer

Molecule: B2
- stoichiometry N [4]: ~0.5 BRCA2 per MEILB2 chain (4:2 MEILB2:BRCA2)
- binding result [5]: binds

Molecule: B3
- stoichiometry N [6]: 4 chains in the oligomer
- stoichiometry N [7]: 2 chains in the oligomer
